The text below walks through data of US5679770A, “Polypeptide, DNA fragment encoding the same, drug composition containing the same and process for producing the same” (Mochida Pharmaceutical Co., Ltd., priority 1991, dated 1997).

One assay has as its target T1, Bovine trypsin (Bos taurus, UniProt P00760).
T1 construct: purchased Sigma Chemical Co. Type XIII
T1 sequence (P00760 24-246): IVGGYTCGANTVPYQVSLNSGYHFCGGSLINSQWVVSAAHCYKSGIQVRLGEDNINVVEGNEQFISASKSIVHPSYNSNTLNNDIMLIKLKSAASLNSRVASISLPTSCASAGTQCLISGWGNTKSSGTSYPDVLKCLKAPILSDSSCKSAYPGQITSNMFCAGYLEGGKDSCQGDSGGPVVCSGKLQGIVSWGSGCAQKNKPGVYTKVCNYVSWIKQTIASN
Briefly: Bovine trypsin-inhibiting activity (synthetic substrate S-2444). Format: biochemical. As to conditions: purified polypeptide, serially diluted. The protocol: The purified polypeptide of the present invention was dissolved in 100 μl of distilled water, and the solution was serially diluted with a 0.1% BSA/0.2M triethanolamine-HCl buffer (pH 7.8) for use in the activity measurement. Measurement of the trypsin-inhibiting activity in the thus prepared test sample was carried out in accordance with the Kassell's method (Kassell, B. et al., Methods in Enzymology, vol.19, pp.844-852, 1970) using a synthetic substrate S-2444 (Daiichi Pure Chemicals Co., Ltd.).
Bovine trypsin (Type XIII, Sigma Chemical Co.) was dissolved in 0.001M HCl to a final concentration of 13,600 BAEEU/ml and the solution was further diluted with 0.1% BSA/0.2M triethanolamine-HCl buffer (pH 7.8) to prepare 1.2 BAEEU/ml of trypsin solution. Separately from this, 2 mM solution of the synthetic substrate S-2444 was prepared by dissolving it in distilled water. Next, 100 μl of the test sample was mixed with 100 μl of the trypsin solution. After incubating statically at 37° C. for 10 minutes, 50 μl of the S-2444 solution was added to start the reaction. The reaction was carried out at 37° C. for 15 minutes and then stopped by adding 50 μl of 50% acetic acid solution to the reaction mixture. Thereafter, absorbance at a wavelength of 405 nm was measured using a spectrophotometer. In this instance, in order to eliminate absorbancy of various contents in the reaction mixture other than the reaction product, a blank solution was prepared by mixing 100 μl of the bovine trypsin solution with 50 μl of 50% acetic acid and then with 100 μl of each test sample and 50 μl of the S-2444 solution.

The target in a further assay is T2, human FXa (Homo sapiens, UniProt P00742).
T2 construct: purchased American Diagnostica Inc
T2 sequence (P00742 235-488 limits assumed): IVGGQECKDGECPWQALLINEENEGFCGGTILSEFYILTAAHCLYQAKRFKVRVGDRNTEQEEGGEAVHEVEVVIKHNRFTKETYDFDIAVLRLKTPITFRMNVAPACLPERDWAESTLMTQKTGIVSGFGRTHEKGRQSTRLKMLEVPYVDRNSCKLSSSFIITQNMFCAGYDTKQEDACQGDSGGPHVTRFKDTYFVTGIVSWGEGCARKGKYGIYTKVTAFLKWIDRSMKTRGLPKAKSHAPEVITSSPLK
T2 sequence (P00742 41-179 partner limits assumed): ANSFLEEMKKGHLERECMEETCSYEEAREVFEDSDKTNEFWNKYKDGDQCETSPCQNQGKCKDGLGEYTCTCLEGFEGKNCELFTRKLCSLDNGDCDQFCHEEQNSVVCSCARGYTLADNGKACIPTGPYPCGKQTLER
Briefly: FXa-inhibiting activity (synthetic substrate S-2222). Format: biochemical. Conditions: relative to control AN68; concentration expressed as bovine trypsin-inhibiting activity. The protocol: The purified polypeptide of the present invention was dissolved in 100 μl of distilled water. Polypeptide concentration of this solution was determined based on its bovine trypsin-inhibiting activity measured in accordance with the above procedure (1) using the aforementioned UTI as a standard. The thus prepared solution was then diluted to various concentration levels with 0.1% BSA/150 mM NaCl/5 mM CaCl2 /50 mM Tris-HCl buffer (pH 8.3) for use in the activity measurement. Separately from this, a polypeptide TN70 (cf. Japanese Patent Application No. 3-325220) and polypeptide AN68 were purified respectively in accordance with the procedure of Example 2(4) from a culture supernatant of E. coli JE5505(pM552) (deposit No., FERM BP-3561) and E. coli JE5505(pM594) obtained by transforming E. coli JE5505 with the aforementioned plasmid pM594 obtained in Example 4. The thus purified polypeptide TN70 and AN68 were diluted to various concentration levels to be used as control solutions.
Using a synthetic compound S-2222 (Daiichi Pure Chemicals Co., Ltd.) as a substrate, FXa-inhibiting activities in the thus prepared test sample solution and control solution were measured in accordance with the method of Ohno et al. (Ohno H. et al., Thromb. Res., vol.19, pp.579-588, 1980) as follows. First, human FXa (American Diagnostica Inc.) was dissolved in distilled water to a final concentration of 10 PEU/ml and the solution was further diluted with the aforementioned 0.1% BSA/150 mM NaCl/5 mM CaCl2 /50 mM Tris-HCl buffer (pH 8.3) to prepare 0.1 PEU/ml of FXa solution. Separately from this, a 4 mM solution of S-2222 was prepared by dissolving it in distilled water and the solution was further diluted with the 0.1% BSA/150 mM NaCl/5 mM CaCl2 /50 mM Tris-HCl buffer (pH 8.3) to obtain a 2 mM solution of S-2222.
Next, 25 μl of the test sample or control solution was mixed with 100 μl of the 0.1% BSA/150 mM NaCl/5 mM CaCl2 /50 mM Tris-HCl buffer (pH 8.3) and 25 μl of the FXa solution. After incubating statically at 37° C. for 10 minutes, 100 μl of the S-2222 solution was added to start the reaction. The reaction was carried out at 37° C. for 30 minutes and then stopped by adding 50 μl of 50% acetic acid solution to the reaction mixture. Thereafter, absorbance at a wavelength of 405 nm was measured using a spectrophotometer. In this instance, in order to eliminate absorbancy of various contents in the reaction mixture other than the reaction product, a blank solution was prepared by mixing 25 μl of the FXa solution with 50 μl of 50% acetic acid and then with 25 μl of each test sample or the control solution, 100 μl of the 0.1% BSA/150 mM NaCl/5 mM CaCl2 /50 mM Tris-HCl buffer (pH 8.3) and with 100 μl of the S-2222 solution.
The results are shown in FIG. 45 to FIG. 53 and FIG. 66. In these figures, polypeptide concentration in the reaction solution was expressed as its bovine trypsin-inhibiting activity. Also, residual human FXa activity was expressed by percentage based on the absorbance of a control reaction mixture in which 25 μl of the 0.1% BSA/150 mM NaCl/5 mM CaCl2 /50 mM Tris-HCl buffer (pH 8.3) was used instead of the test sample.

B1: R11Q/Q19K/Y46D: formula 1 sequence with Gln for position 7 Arg, Lys for position 15 Gln, Asp for position 42 Tyr; SEQ. I.D. NO. 37 (protein)
chain: AACNLPIVQGPCRAFIKLWAFDAVKGKCVLFPYGGCQGNGNKFDSEKECREYCGVPGDGDEELLRFSN
On to B1, for which the bovine trypsin inhibition entry with Bovine trypsin was “can inhibit bovine trypsin in a concentration-dependent manner”. In addition, in the assay with human FXa, the “FXa-inhibiting activity, times higher than that of polypeptide AN68” value (“FXa-inhibiting activity” below) is “about twenty”.

B2: R11A/Q19K/Y46D: formula 1 sequence with Ala for position 7 Arg, Lys for position 15 Gln, Asp for position 42 Tyr; SEQ. I.D. NO. 43 (protein)
chain: AACNLPIVAGPCRAFIKLWAFDAVKGKCVLFPYGGCQGNGNKFDSEKECREYCGVPGDGDEELLRFSN
B2: in the assay with Bovine trypsin, the bovine trypsin inhibition entry was “can inhibit bovine trypsin in a concentration-dependent manner”. Besides, the “FXa-inhibiting activity” value in the assay with human FXa is “about 9 times”.

B3: R11N/Q19K/Y46D: formula 1 sequence with Asn for position 7 Arg, Lys for position 15 Gln, Asp for position 42 Tyr; SEQ. I.D. NO. 41 (protein)
chain: AACNLPIVNGPCRAFIKLWAFDAVKGKCVLFPYGGCQGNGNKFDSEKECREYCGVPGDGDEELLRFSN
Take B3: the bovine trypsin inhibition entry with Bovine trypsin is “can inhibit bovine trypsin in a concentration-dependent manner”. Besides, in the assay with human FXa, the “FXa-inhibiting activity” value is “about 10 times”.

B4: R11L/Q19K/Y46D: formula 1 sequence with Leu for position 7 Arg, Lys for position 15 Gln, Asp for position 42 Tyr; SEQ. I.D. NO. 39 (protein)
chain: AACNLPIVLGPCRAFIKLWAFDAVKGKCVLFPYGGCQGNGNKFDSEKECREYCGVPGDGDEELLRFSN
For B4, the bovine trypsin inhibition result with Bovine trypsin is on record as “can inhibit bovine trypsin in a concentration-dependent manner”. Further, in the assay with human FXa, the “FXa-inhibiting activity” value is reported as “about 16 times”.

B5: R11S/Q19K/Y46D: formula 1 sequence with Ser for position 7 Arg, Lys for position 15 Gln, Asp for position 42 Tyr; SEQ. I.D. NO. 42 (protein)
chain: AACNLPIVSGPCRAFIKLWAFDAVKGKCVLFPYGGCQGNGNKFDSEKECREYCGVPGDGDEELLRFSN
With B5, in the assay with Bovine trypsin, the bovine trypsin inhibition result was “can inhibit bovine trypsin in a concentration-dependent manner”. The “FXa-inhibiting activity” value with human FXa is “about 8 times”.

B6: R11D/Q19K/Y46D: formula 1 sequence with Asp for position 7 Arg, Lys for position 15 Gln, Asp for position 42 Tyr; SEQ. I.D. NO. 38 (protein)
chain: AACNLPIVDGPCRAFIKLWAFDAVKGKCVLFPYGGCQGNGNKFDSEKECREYCGVPGDGDEELLRFSN
Regarding B6, the bovine trypsin inhibition entry in the assay with Bovine trypsin is on record as “can inhibit bovine trypsin in a concentration-dependent manner”. For the same molecule, in the assay with human FXa, the “FXa-inhibiting activity” value is recorded as “about 5 times”.

B7: R11E/Q19K/Y46E: formula 1 sequence with Glu for position 7 Arg, Lys for position 15 Gln, Glu for position 42 Tyr; SEQ. I.D. NO. 40 (protein)
chain: AACNLPIVEGPCRAFIKLWAFDAVKGKCVLFPYGGCQGNGNKFESEKECREYCGVPGDGDEELLRFSN
B7: the bovine trypsin inhibition result with Bovine trypsin is reported as “can inhibit bovine trypsin in a concentration-dependent manner”. Further, in the assay with human FXa, the “FXa-inhibiting activity” value is on record as “about 13 times”.
